Measurements published in patent US20240034815A1 (Xencor, published 2024).

B1: GPC3-A variable heavy variant H1.1 (D52E) with L1 (antibody, V domains shown)
VH: QVQLVQSGAEVKKPGASVKVSCKASGYTFTDYEMHWVRQAPGQGLEWMGALEPKTGDTAYSQKFQGRVTMTADKSISTAYMELSRLRSDDTAVYYCTRFYSYTYWGQGTLVTVSS
VL: DVVMTQSPLSLPVTLGQPASISCRSSQSLVHSNGNTYLHWYQQRPGQSPRLLIYKVSNRFSGVPDRFSGSGSGTDFTLKISRVEAEDVGVYFCSQNTHVPPTFGSGTKLEIK
notes: pairing with L1 follows from the library being made on humanized GPC3-A and from pair c) of claim 53; also called [GPC3]H1.1_L1
B2: GPC3-A variable light variant L1.6 (G29T) with H1 (antibody, V domains shown)
VH: QVQLVQSGAEVKKPGASVKVSCKASGYTFTDYEMHWVRQAPGQGLEWMGALDPKTGDTAYSQKFQGRVTMTADKSISTAYMELSRLRSDDTAVYYCTRFYSYTYWGQGTLVTVSS
VL: DVVMTQSPLSLPVTLGQPASISCRSSQSLVHSNTNTYLHWYQQRPGQSPRLLIYKVSNRFSGVPDRFSGSGSGTDFTLKISRVEAEDVGVYFCSQNTHVPPTFGSGTKLEIKR
notes: pairing with H1 follows from the library being made on humanized GPC3-A and from pair l) of claim 53; also called [GPC3]H1_L1.6
B3: XENP 23064 H1_L1.1 (antibody, human IgG1, kappa, V domains shown)
VH: QVQLVQSGAEVKKPGASVKVSCKASGYTFTDYEMHWVRQAPGQGLEWMGALDPKTGDTAYSQKFQGRVTMTADKSISTAYMELSRLRSDDTAVYYCTRFYSYTYWGQGTLVTVSS
VL: DVVMTQSPLSLPVTLGQPASISCRSSQSLVHSQGNTYLHWYQQRPGQSPRLLIYKVSNRFSGVPDRFSGSGSGTDFTLKISRVEAEDVGVYFCSQNTHVPPTFGSGTKLEIKR
notes: VH WT, VL mutation (Kabat) N28Q; also called [GPC3]H1_L1.1; VL N28Q; copies: 2 + 2
B4: humanized GPC3-A H1_L1 (antibody, V domains shown)
VH: QVQLVQSGAEVKKPGASVKVSCKASGYTFTDYEMHWVRQAPGQGLEWMGALDPKTGDTAYSQKFQGRVTMTADKSISTAYMELSRLRSDDTAVYYCTRFYSYTYWGQGTLVTVSS
VL: DVVMTQSPLSLPVTLGQPASISCRSSQSLVHSNGNTYLHWYQQRPGQSPRLLIYKVSNRFSGVPDRFSGSGSGTDFTLKISRVEAEDVGVYFCSQNTHVPPTFGSGTKLEIK
notes: also called [GPC3]H1_L1
B5: XENP 23063 H1.4_L1 (antibody, human IgG1, kappa, V domains shown)
VH: QVQLVQSGAEVKKPGASVKVSCKASGYTFTDYEMHWVRQAPGQGLEWMGALSPKTGDTAYSQKFQGRVTMTADKSISTAYMELSRLRSDDTAVYYCTRFYSYTYWGQGTLVTVSS
VL: DVVMTQSPLSLPVTLGQPASISCRSSQSLVHSNGNTYLHWYQQRPGQSPRLLIYKVSNRFSGVPDRFSGSGSGTDFTLKISRVEAEDVGVYFCSQNTHVPPTFGSGTKLEIKR
notes: VH mutation (Kabat) D52S, VL WT; also called [GPC3]H1.4_L1; VH D52S; copies: 2 + 2
B6: XENP 23061 H1.2_L1 (antibody, human IgG1, kappa, V domains shown)
VH: QVQLVQSGAEVKKPGASVKVSCKASGYTFTDYEMHWVRQAPGQGLEWMGALNPKTGDTAYSQKFQGRVTMTADKSISTAYMELSRLRSDDTAVYYCTRFYSYTYWGQGTLVTVSS
VL: DVVMTQSPLSLPVTLGQPASISCRSSQSLVHSNGNTYLHWYQQRPGQSPRLLIYKVSNRFSGVPDRFSGSGSGTDFTLKISRVEAEDVGVYFCSQNTHVPPTFGSGTKLEIKR
notes: VH mutation (Kabat) D52N, VL WT; also called [GPC3]H1.2_L1; VH D52N; copies: 2 + 2
B7: XENP 23072 H1_L1.9 (antibody, human IgG1, kappa, V domains shown)
VH: QVQLVQSGAEVKKPGASVKVSCKASGYTFTDYEMHWVRQAPGQGLEWMGALDPKTGDTAYSQKFQGRVTMTADKSISTAYMELSRLRSDDTAVYYCTRFYSYTYWGQGTLVTVSS
VL: DVVMTQSPLSLPVTLGQPASISCRSSQSLVHSNGYTYLHWYQQRPGQSPRLLIYKVSNRFSGVPDRFSGSGSGTDFTLKISRVEAEDVGVYFCSQNTHVPPTFGSGTKLEIKR
notes: VH WT, VL mutation (Kabat) N30Y; also called [GPC3]H1_L1.9; VL N30Y; copies: 2 + 2
B8: XENP 23065 H1_L1.2 (antibody, human IgG1, kappa, V domains shown)
VH: QVQLVQSGAEVKKPGASVKVSCKASGYTFTDYEMHWVRQAPGQGLEWMGALDPKTGDTAYSQKFQGRVTMTADKSISTAYMELSRLRSDDTAVYYCTRFYSYTYWGQGTLVTVSS
VL: DVVMTQSPLSLPVTLGQPASISCRSSQSLVHSYGNTYLHWYQQRPGQSPRLLIYKVSNRFSGVPDRFSGSGSGTDFTLKISRVEAEDVGVYFCSQNTHVPPTFGSGTKLEIKR
notes: VH WT, VL mutation (Kabat) N28Y; also called [GPC3]H1_L1.2; VL N28Y; copies: 2 + 2
B9: XENP 23062 H1.3_L1 (antibody, human IgG1, kappa, V domains shown)
VH: QVQLVQSGAEVKKPGASVKVSCKASGYTFTDYEMHWVRQAPGQGLEWMGALQPKTGDTAYSQKFQGRVTMTADKSISTAYMELSRLRSDDTAVYYCTRFYSYTYWGQGTLVTVSS
VL: DVVMTQSPLSLPVTLGQPASISCRSSQSLVHSNGNTYLHWYQQRPGQSPRLLIYKVSNRFSGVPDRFSGSGSGTDFTLKISRVEAEDVGVYFCSQNTHVPPTFGSGTKLEIKR
notes: VH mutation (Kabat) D52Q, VL WT; also called [GPC3]H1.3_L1; VH D52Q; copies: 2 + 2
B10: XENP 23070 H1_L1.7 (antibody, human IgG1, kappa, V domains shown)
VH: QVQLVQSGAEVKKPGASVKVSCKASGYTFTDYEMHWVRQAPGQGLEWMGALDPKTGDTAYSQKFQGRVTMTADKSISTAYMELSRLRSDDTAVYYCTRFYSYTYWGQGTLVTVSS
VL: DVVMTQSPLSLPVTLGQPASISCRSSQSLVHSNKNTYLHWYQQRPGQSPRLLIYKVSNRFSGVPDRFSGSGSGTDFTLKISRVEAEDVGVYFCSQNTHVPPTFGSGTKLEIKR
notes: VH WT, VL mutation (Kabat) G29K; also called [GPC3]H1_L1.7; VL G29K; copies: 2 + 2
B11: XENP 23066 H1_L1.3 (antibody, human IgG1, kappa, V domains shown)
VH: QVQLVQSGAEVKKPGASVKVSCKASGYTFTDYEMHWVRQAPGQGLEWMGALDPKTGDTAYSQKFQGRVTMTADKSISTAYMELSRLRSDDTAVYYCTRFYSYTYWGQGTLVTVSS
VL: DVVMTQSPLSLPVTLGQPASISCRSSQSLVHSSGNTYLHWYQQRPGQSPRLLIYKVSNRFSGVPDRFSGSGSGTDFTLKISRVEAEDVGVYFCSQNTHVPPTFGSGTKLEIKR
notes: VH WT, VL mutation (Kabat) N28S; also called [GPC3]H1_L1.3; VL N28S; copies: 2 + 2
B12: XENP 23068 H1_L1.5 (antibody, human IgG1, kappa, V domains shown)
VH: QVQLVQSGAEVKKPGASVKVSCKASGYTFTDYEMHWVRQAPGQGLEWMGALDPKTGDTAYSQKFQGRVTMTADKSISTAYMELSRLRSDDTAVYYCTRFYSYTYWGQGTLVTVSS
VL: DVVMTQSPLSLPVTLGQPASISCRSSQSLVHSNANTYLHWYQQRPGQSPRLLIYKVSNRFSGVPDRFSGSGSGTDFTLKISRVEAEDVGVYFCSQNTHVPPTFGSGTKLEIKR
notes: VH WT, VL mutation (Kabat) G29A; also called [GPC3]H1_L1.5; VL G29A; copies: 2 + 2
B13: XENP 23073 H1_L1.10 (antibody, human IgG1, kappa, V domains shown)
VH: QVQLVQSGAEVKKPGASVKVSCKASGYTFTDYEMHWVRQAPGQGLEWMGALDPKTGDTAYSQKFQGRVTMTADKSISTAYMELSRLRSDDTAVYYCTRFYSYTYWGQGTLVTVSS
VL: DVVMTQSPLSLPVTLGQPASISCRSSQSLVHSNGHTYLHWYQQRPGQSPRLLIYKVSNRFSGVPDRFSGSGSGTDFTLKISRVEAEDVGVYFCSQNTHVPPTFGSGTKLEIKR
notes: VH WT, VL mutation (Kabat) N30H; also called [GPC3]H1_L1.10; VL N30H; copies: 2 + 2
B14: XENP 23071 H1_L1.8 (antibody, human IgG1, kappa, V domains shown)
VH: QVQLVQSGAEVKKPGASVKVSCKASGYTFTDYEMHWVRQAPGQGLEWMGALDPKTGDTAYSQKFQGRVTMTADKSISTAYMELSRLRSDDTAVYYCTRFYSYTYWGQGTLVTVSS
VL: DVVMTQSPLSLPVTLGQPASISCRSSQSLVHSNGQTYLHWYQQRPGQSPRLLIYKVSNRFSGVPDRFSGSGSGTDFTLKISRVEAEDVGVYFCSQNTHVPPTFGSGTKLEIKR
notes: VH WT, VL mutation (Kabat) N30Q; also called [GPC3]H1_L1.8; VL N30Q; copies: 2 + 2
B15: XENP 23067 H1_L1.4 (antibody, human IgG1, kappa, V domains shown)
VH: QVQLVQSGAEVKKPGASVKVSCKASGYTFTDYEMHWVRQAPGQGLEWMGALDPKTGDTAYSQKFQGRVTMTADKSISTAYMELSRLRSDDTAVYYCTRFYSYTYWGQGTLVTVSS
VL: DVVMTQSPLSLPVTLGQPASISCRSSQSLVHSHGNTYLHWYQQRPGQSPRLLIYKVSNRFSGVPDRFSGSGSGTDFTLKISRVEAEDVGVYFCSQNTHVPPTFGSGTKLEIKR
notes: VH WT, VL mutation (Kabat) N28H; also called [GPC3]H1_L1.4; VL N28H

Biological target: T1, His-tagged human GPC3 (human, UniProt P51654 25-559, limits assumed)
T1 construct: Captured on HIS1K sensors in the Octet assay; also called human GPC3 antigen; Glypican 3; not shown: His tag
T1 sequence (P51654 25-559 limits assumed): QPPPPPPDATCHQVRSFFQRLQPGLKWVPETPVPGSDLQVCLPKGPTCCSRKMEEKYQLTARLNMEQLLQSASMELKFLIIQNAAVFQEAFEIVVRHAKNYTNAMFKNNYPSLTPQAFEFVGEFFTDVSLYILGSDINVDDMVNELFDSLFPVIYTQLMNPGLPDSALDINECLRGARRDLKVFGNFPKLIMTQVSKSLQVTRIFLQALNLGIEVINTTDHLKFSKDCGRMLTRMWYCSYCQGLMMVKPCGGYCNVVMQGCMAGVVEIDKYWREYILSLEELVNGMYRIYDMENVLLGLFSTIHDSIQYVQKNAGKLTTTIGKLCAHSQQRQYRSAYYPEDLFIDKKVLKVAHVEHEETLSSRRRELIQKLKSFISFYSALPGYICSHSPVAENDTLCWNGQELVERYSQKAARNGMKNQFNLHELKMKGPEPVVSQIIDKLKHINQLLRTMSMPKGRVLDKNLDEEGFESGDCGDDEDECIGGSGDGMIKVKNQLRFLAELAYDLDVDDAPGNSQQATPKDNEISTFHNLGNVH
Assay: binding assay not named for this figure; human GPC3 per legend paragraph 61

Point of comparison: B3, Kd 28.2 nM. Against it:
- B1 — 7.2-fold lower, 3.92 nM
- B2 — 9.9-fold lower, 2.85 nM
- B4 — 8.9-fold lower, 3.17 nM
- B5 — 7.8-fold lower, 3.62 nM
- B6 — 4.9-fold lower, 5.81 nM
- B7 — 21-fold lower, 1.37 nM
- B8 — 3.8-fold lower, 7.43 nM
- B9 — 9-fold lower, 3.13 nM
- B10 — 13-fold lower, 2.22 nM
- B11 — 2.2-fold lower, 12.7 nM
- B12 — 13-fold lower, 2.09 nM
- B13 — 8.3-fold lower, 3.38 nM
- B14 — 12-fold lower, 2.35 nM
- B15 — 2.4-fold lower, 11.7 nM
